Substitutions are numbered along the chain they refer to.
B1: NT (wild type N-terminal fragment of Euprosthenops australis major spidroin 1) (protein)
chain: GSGNSHTTPWTNPGLAENFMNSFMQGLSSMPGFTASQLDDMSTIAQSMVQSIQSLAAQGRTSPNKLQALNMAFASSMAEIAASEEGGGSLSTKTSSIASAMSNAFLQTTGVVNQPFINEITQLVSMFAQAGMNDVSA
B2: NT^A72R (other)
chain: B1 chain with A72R
notes: also called mutated NT; mutant NT

What was measured:
[1] = target: NT (wild type N-terminal fragment of Euprosthenops australis major spidroin 1) (Euprosthenops australis); assay: tryptophan fluorescence, 5 uM protein, between pH 7 and pH 6; the filing uses it as a probe of dimerisation
[2] = target: the molecule itself; assay: comparative structural studies, pH lowered from 7 to 6 (self-association)

| Binder | red-shift in fluorescence emission [1] | binding result [2] |
| --- | --- | --- |
| B1 | 15 nm |  |
| B2 |  | no binding |
